Test results published in US11807689 (TG THERAPEUTICS, dated 2023).

What was measured:
[1] = molecular target: FcγIIIA Receptor on the effector cells (UniProt P08637 17-254, limits assumed); assay: cell-based or functional assay
[2] = molecular target: C1q Receptor in the complement system (rabbit serum complement) (rabbit); assay: cell-based or functional assay
FcγRIIIa 158V receptor = molecular target: T1, FcγRIIIa 158V receptor (human, UniProt P08637 17-208, limits assumed); assay: SPR, receptor amine-coupled to the chip
T1 construct: in the Octet assay part of a 'Human Fc receptor panel' loaded on Anti-Penta His biosensors, so probably His-tagged; also called FcγRIIIA V158
Protocol: (§1) The method follows a direct binding assay methodology where the FcγRIIIa receptor is directly immobilized onto the flow cell on a sensor chip surface and samples are injected over the chip to assess binding. […] Independent duplicates of sample dilutions are injected over the chip, followed by surface regeneration between each cycle. The binding is measured in response units (RU). The kinetics of the binding reaction is determined by measuring changes in SPR due to the increase in mass in the close proximity to the biosensor chip surface. Change in the mass of the complex as a function of time is visualized as a sensorgram.
(§2) The equilibrium dissociation constants (K_D) of each sample is determined for each receptor.

FcγRIIIa 158F receptor = molecular target: T2, FcγRIIIa 158F receptor (human, UniProt P08637 17-208, limits assumed); assay: SPR, receptor amine-coupled to the chip
T2 construct: in the Octet assay part of a 'Human Fc receptor panel' loaded on Anti-Penta His biosensors, so probably His-tagged; also called FcγRIIIA F158
Protocol: as §1, §2

T2 sequence (P08637 17-208 limits assumed): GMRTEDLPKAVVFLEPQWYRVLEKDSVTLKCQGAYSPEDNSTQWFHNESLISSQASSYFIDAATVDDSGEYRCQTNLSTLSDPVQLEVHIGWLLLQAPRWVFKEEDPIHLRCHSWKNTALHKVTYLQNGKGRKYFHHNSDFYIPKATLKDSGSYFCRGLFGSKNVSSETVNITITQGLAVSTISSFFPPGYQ
T1 sequence (P08637 17-208 F176V limits assumed): as the sequence (P08637 17-208 limits assumed) above, with F160V counted along it
Chain of FcγIIIA Receptor on the effector cells (P08637 17-254 limits assumed): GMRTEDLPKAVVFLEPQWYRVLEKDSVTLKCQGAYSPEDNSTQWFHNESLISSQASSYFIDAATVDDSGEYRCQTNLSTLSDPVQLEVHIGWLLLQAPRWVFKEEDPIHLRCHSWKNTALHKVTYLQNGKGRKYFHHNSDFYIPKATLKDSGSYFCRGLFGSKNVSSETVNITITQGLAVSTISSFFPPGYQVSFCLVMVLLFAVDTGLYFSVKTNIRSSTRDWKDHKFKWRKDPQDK

ADCC EC50, fold lower than OCREVUS ® [1]: ~25 fold
CDC EC50 (Jeko-1 cells, rabbit serum) [2]: 0.67 µg/mL
fold higher affinity than OCREVUS® (FcγRIIIa 158V receptor): ~15 fold
fold higher affinity than OCREVUS® (FcγRIIIa 158F receptor): ~10 fold
B1: TG-1101 (TG Therapeutics, Inc.) (antibody, human IgG1, kappa)
heavy: not shown
light: QIVLSQSPAILSASPGEKVTMTCRASSSVSYMHWYQQKPGSSPKPWIYATSNLASGVPARFSGSGSGTSYSFTISRVEAEDAATYYCQQWTFNPPTFGGGTRLEIKRTVAAPSVFIFPPSDEQLKSGTASVVCLLNNFYPREAKVQWKVDNALQSGNSQESVTEQDSKDSTYSLSSTLTLSKADYEKHKVYACEVTHQGLSSPVTKSFNRGEC
notes: Chimeric IgG1 made in rat YB2/0 cells, low-fucose N-glycan profile; also called ublituximab; UBX
